The subject of series [1] is HeLa Kyoto. Put plainly: solubility in G1/S (NP-40 vs SDS abundance) (log2 ratio); higher = more soluble. Conditions: cell cycle stage: G1/S.
Series [2] relates to HeLa Kyoto. Nature of the series: solubility change mitosis vs G1/S (difference of NP-40 vs SDS log2 ratios) (log2 ratio difference); higher = more soluble in mitosis.
For series [3], the system named is HeLa Kyoto. Put plainly: thermal stability score vs G1/S (z-score of summed log2 fold changes over temperatures); higher = more thermally stable than in G1/S.
The test system of series [4] is HeLa Kyoto. Put plainly: melting temperature (median over replicates), in situ; higher = more thermally stable.
[5] abbreviates: cell cycle stage: early G1 (4.5 h after nocodazole release).

Experimental findings from the supplement of paper PMC5998384 are described below.
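Wherever melting temperature (median over replicates), in situ is given: HeLa Kyoto cells synchronized by double thymidine or nocodazole block, proteins quantified by TMT10plex mass spectrometry, three independent biological replicates.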
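Wherever solubility change mitosis vs G1/S (difference of NP-40 vs SDS log2 ratios) is given: synchronized HeLa Kyoto cells (double thymidine block for G1/S, nocodazole release for mitosis), protein amounts in NP-40 versus SDS lysates quantified by mass spectrometry, three biological replicates.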
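Wherever solubility in G1/S (NP-40 vs SDS abundance) is given: HeLa Kyoto cells arrested at G1/S by double thymidine block, proteins quantified by TMT10plex mass spectrometry in mild NP-40 versus SDS extracts, three biological replicates.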
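Wherever thermal stability score vs G1/S (z-score of summed log2 fold changes over temperatures) is given: synchronized HeLa Kyoto cells, proteins quantified by TMT10plex mass spectrometry, three biological replicates, mitosis taken 0.5 h after nocodazole release, G1/S directly after double thymidine block.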

On to “MAHAPARCPSARGSGDGEMGKPRNVALITGITGQDGSYLAEFLLEKGYEVHGIVRRSSSFNTGRIEHLYKNPQAHIEGNMKLHYGDLTDSTCLVKIINEVKPTEIYNLGAQSHVKISFDLAEYTADVDGVGTLRLLDAVKTCGLINSVKFYQASTSELYGKVQEIPQKETTPFYPRSPYGAAKLYAYWIVVNFREAYNLFAVNGILFNHESPRRGANFVTRKISRSVAKIYLGQLECFSLGNLDAKRDWGHAKDYVEAMWLMLQNDEPEDFVIATGEVHSVREFVEKSFLHIGKTIVWEGKNENEVGRCKETGKVHVTVDLKYYRPTEVDFLQGDCTKAKQKLNWKPRVAFDELVREMVHADVELMRTNPNA [GMDS]”, for which the “solubility in G1/S (log2)” value in series [1] is -0.249. For the same sequence, the “solubility change mitosis (log2)” value in series [2] was -0.00656. Moreover, the thermal stability score in series [3] (setting [5]) was -0.0264; in series [3] (cell cycle stage: mitosis), -1.35. Further, the melting temperature in series [4] (cell cycle stage: G1/S) was found to be 56.4 °C; in series [4] (cell cycle stage: mitosis), 57.4 °C.
As to “MAHCVTLVQLSISCDHLIDKDIGSKSDPLCVLLQDVGGGSWAELGRTERVRNCSSPEFSKTLQLEYRFETVQKLRFGIYDIDNKTPELRDDDFLGGAECSLGQIVSSQVLTLPLMLKPGKPAGRGTITVSAQELKDNRVVTMEVEARNLDKKDFLGKSDPFLEFFRQGDGKWHLVYRSEVIKNNLNPTWKRFSVPVQHFCGGNPSTPIQVQCSDYDSDGSHDLIGTFHTSLAQLQAVPAEFECIHPEKQQKKKSYKNSGTIRVKICRVETEYSFLDYVMGGCQINFTVGVDFTGSNGDPSSPDSLHYLSPTGVNEYLMALWSVGSVVQDYDSDKLFPAFGFGAQVPPDWQVSHEFALNFNPSNPYCAGIQGIVDAYRQALPQVRLYGPTNFAPIINHVARFAAQAAHQGTASQYFMLLLLTDGAVTDVEATREAVVRASNLPMSVIIVGVGGADFEAMEQLDADGGPLHTRSGQAAARDIVQFVPYRRFQNAPREALAQTVLAEVPTQLVSYFRAQGWAPLKPLPPSAKDPAQAPQA [CPNE1]”, the “solubility in G1/S (log2)” value in series [1] is 0.146. Moreover, the “solubility change mitosis (log2)” value in series [2] is -0.134. The results for the thermal stability score in series [3] (setting [5]) and in series [3] (cell cycle stage: mitosis) were 0.0462 and 0.0377, respectively. For the same sequence, the melting temperature in series [4] (cell cycle stage: G1/S) came to 52 °C; in series [4] (cell cycle stage: mitosis), 51.9 °C.
On to “MAHQTGIHATEELKEFFAKARAGSVRLIKVVIEDEQLVLGASQEPVGRWDQDYDRAVLPLLDAQQPCYLLYRLDSQNAQGFEWLFLAWSPDNSPVRLKMLYAATRATVKKEFGGGHIKDELFGTVKDDLSFAGYQKHLSSCAAPAPLTSAERELQQIRINEVKTEISVESKHQTLQGLAFPLQPEAQRALQQLKQKMVNYIQMKLDLERETIELVHTEPTDVAQLPSRVPRDAARYHFFLYKHTHEGDPLESVVFIYSMPGYKCSIKERMLYSSCKSRLLDSVEQDFHLEIAKKIEIGDGAELTAEFLYDEVHPKQHAFKQAFAKPKGPGGKRGHKRLIRGPGENGDDS [TWF2]”, for which the “solubility in G1/S (log2)” value in series [1] amounted to 0.275. The “solubility change mitosis (log2)” value in series [2] was -0.23. The thermal stability score in series [3] (setting [5]) is -0.101; in series [3] (cell cycle stage: mitosis) it was -1.11. Besides, the melting temperature in series [4] (cell cycle stage: G1/S) is 53.6 °C; in series [4] (cell cycle stage: mitosis) it was 53 °C.
For the sequence “MAHTTKVNGSASGKAGDILSGDQDKEQKDPYFVETPYGYQLDLDFLKYVDDIQKGNTIKRLNIQKRRKPSVPCPEPRTTSGQQGIWTSTESLSSSNSDDNKQCPNFLIARSQVTSTPISKPPPPLETSLPFLTIPENRQLPPPSPQLPKHNLHVTKTLMETRRRLEQERATMQMTPGEFRRPRLASFGGMGTTSSLPSFVGSGNHNPAKHQLQNGYQGNGDYGSYAPAAPTTSSMGSSIRHSPLSSGISTPVTNVSPMHLQHIREQMAIALKRLKELEEQVRTIPVLQVKISVLQEEKRQLVSQLKNQRAASQINVCGVRKRSYSAGNASQLEQLSRARRSGGELYIDYEEEEMETVEQSTQRIKEFRQLTADMQALEQKIQDSSCEASSELRENGECRSVAVGAEENMNDIVVYHRGSRSCKDAAVGTLVEMRNCGVSVTEAMLGVMTEADKEIELQQQTIESLKEKIYRLEVQLRETTHDREMTKLKQELQAAGSRKKVDKATMAQPLVFSKVVEAVVQTRDQMVGSHMDLVDTCVGTSVETNSVGISCQPECKNKVVGPELPMNWWIVKERVEMHDRCAGRSVEMCDKSVSVEVSVCETGSNTEESVNDLTLLKTNLNLKEVRSIGCGDCSVDVTVCSPKECASRGVNTEAVSQVEAAVMAVPRTADQDTSTDLEQVHQFTNTETATLIESCTNTCLSTLDKQTSTQTVETRTVAVGEGRVKDINSSTKTRSIGVGTLLSGHSGFDRPSAVKTKESGVGQININDNYLVGLKMRTIACGPPQLTVGLTASRRSVGVGDDPVGESLENPQPQAPLGMMTGLDHYIERIQKLLAEQQTLLAENYSELAEAFGEPHSQMGSLNSQLISTLSSINSVMKSASTEELRNPDFQKTSLGKITGNYLGYTCKCGGLQSGSPLSSQTSQPEQEVGTSEGKPISSLDAFPTQEGTLSPVNLTDDQIAAGLYACTNNESTLKSIMKKKDGNKDSNGAKKNLQFVGINGGYETTSSDDSSSDESSSSESDDECDVIEYPLEEEEEEEDEDTRGMAEGHHAVNIEGLKSARVEDEMQVQECEPEKVEIRERYELSEKMLSACNLLKNTINDPKALTSKDMRFCLNTLQHEWFRVSSQKSAIPAMVGDYIAAFEAISPDVLRYVINLADGNGNTALHYSVSHSNFEIVKLLLDADVCNVDHQNKAGYTPIMLAALAAVEAEKDMRIVEELFGCGDVNAKASQAGQTALMLAVSHGRIDMVKGLLACGADVNIQDDEGSTALMCASEHGHVEIVKLLLAQPGCNGHLEDNDGSTALSIALEAGHKDIAVLLYAHVNFAKAQSPGTPRLGRKTSPGPTHRGSFD [KANK1]”, in series [1], the “solubility in G1/S (log2)” value is -0.0496. Also, the “solubility change mitosis (log2)” value in series [2] is -0.0616. In addition, the thermal stability score in series [3] (setting [5]) was found to be 0.397; in series [3] (cell cycle stage: mitosis) it was 2.14. Further, the values for the melting temperature in series [4] (cell cycle stage: G1/S) and in series [4] (cell cycle stage: mitosis) were 49.3 °C and 49.4 °C, respectively.
“MAIPGRQYGLILPKKTQQLHPVLQKPSVFGNDSDDDDETSVSESLQREAAKKQAMKQTKLEIQKALAEDATVYEYDSIYDEMQKKKEENNPKLLLGKDRKPKYIHNLLKAVEIRKKEQEKRMEKKIQREREMEKGEFDDKEAFVTSAYKKKLQERAEEEEREKRAAALEACLDVTKQKDLSGFYRHLLNQAVGEEEVPKCSFREARSGIKEEKSRGFSNEVSSKNRIPQEKCILQTDVKVEENPDADSDFDAKSSADDEIEETRVNCRREKVIETPENDFKHHRSQNHSRSPSEERGHSTRHHTKGSRTSRGHEKREDQHQQKQSRDQENHYTDRDYRKERDSHRHREASHRDSHWKRHEQEDKPRARDQRERSDRVWKREKDREKYSQREQERDRQQNDQNRPSEKGEKEEKSKAKEEHMKVRKERYENNDKYRDREKREVGVQSSERNQDRKESSPNSRAKDKFLDQERSNKMRNMAKDKERNQEKPSNSESSLGAKHRLTEEGQEKGKEQERPPEAVSKFAKRNNEETVMSARDRYLARQMARVNAKTYIEKEDD [NSRP1]”: the “solubility in G1/S (log2)” value in series [1] is -0.433. Besides, the “solubility change mitosis (log2)” value in series [2] was found to be 0.242. Further, the thermal stability score in series [3] (setting [5]) is 0.0783; in series [3] (cell cycle stage: mitosis), -1.16. Besides, the figures for the melting temperature in series [4] (cell cycle stage: G1/S) and in series [4] (cell cycle stage: mitosis) were 55.3 °C and 55.6 °C, respectively.
For “MAIRKKSTKSPPVLSHEFVLQNHADIVSCVAMVFLLGLMFEITAKASIIFVTLQYNVTLPATEEQATESVSLYYYGIKDLATVFFYMLVAIIIHAVIQEYMLDKINRRMHFSKTKHSKFNESGQLSAFYLFACVWGTFILISENYISDPTILWRAYPHNLMTFQMKFFYISQLAYWLHAFPELYFQKTKKEDIPRQLVYIGLYLFHIAGAYLLNLNHLGLVLLVLHYFVEFLFHISRLFYFSNEKYQKGFSLWAVLFVLGRLLTLILSVLTVGFGLARAENQKLDFSTGNFNVLAVRIAVLASICVTQAFMMWKFINFQLRRWREHSAFQAPAVKKKPTVTKGRSSKKGTENGVNGTLTSNVADSPRNKKEKSS [TRAM1]”, the “solubility in G1/S (log2)” value in series [1] was -0.0229. Moreover, the “solubility change mitosis (log2)” value in series [2] was -0.0373. The thermal stability score is -0.164 in series [3] (setting [5]) and -0.999 in series [3] (cell cycle stage: mitosis). Also, the melting temperature in series [4] (cell cycle stage: G1/S) is 52.2 °C; in series [4] (cell cycle stage: mitosis) it was 52.6 °C.
“MAKGDPKKPKGKMSAYAFFVQTCREEHKKKNPEVPVNFAEFSKKCSERWKTMSGKEKSKFDEMAKADKVRYDREMKDYGPAKGGKKKKDPNAPKRPPSGFFLFCSEFRPKIKSTNPGISIGDVAKKLGEMWNNLNDSEKQPYITKAAKLKEKYEKDVADYKSKGKFDGAKGPAKVARKKVEEEDEEEEEEEEEEEEEEDE [HMGB3]”: in series [1], the “solubility in G1/S (log2)” value is 0.667. Further, the “solubility change mitosis (log2)” value in series [2] turned out to be 0.349. In addition, the thermal stability score was found to be 1.34 in series [3] (setting [5]) and 0.604 in series [3] (cell cycle stage: mitosis). The melting temperature came out at 57 °C in series [4] (cell cycle stage: G1/S) and 57.3 °C in series [4] (cell cycle stage: mitosis).
“MAKIAKTHEDIEAQIREIQGKKAALDEAQGVGLDSTGYYDQEIYGGSDSRFAGYVTSIAATELEDDDDDYSSSTSLLGQKKPGYHAPVALLNDIPQSTEQYDPFAEHRPPKIADREDEYKKHRRTMIISPERLDPFADGGKTPDPKMNARTYMDVMREQHLTKEEREIRQQLAEKAKAGELKVVNGAAASQPPSKRKRRWDQTADQTPGATPKKLSSWDQAETPGHTPSLRWDETPGRAKGSETPGATPGSKIWDPTPSHTPAGAATPGRGDTPGHATPGHGGATSSARKNRWDETPKTERDTPGHGSGWAETPRTDRGGDSIGETPTPGASKRKSRWDETPASQMGGSTPVLTPGKTPIGTPAMNMATPTPGHIMSMTPEQLQAWRWEREIDERNRPLSDEELDAMFPEGYKVLPPPAGYVPIRTPARKLTATPTPLGGMTGFHMQTEDRTMKSVNDQPSGNLPFLKPDDIQYFDKLLVDVDESTLSPEEQKERKIMKLLLKIKNGTPPMRKAALRQITDKAREFGAGPLFNQILPLLMSPTLEDQERHLLVKVIDRILYKLDDLVRPYVHKILVVIEPLLIDEDYYARVEGREIISNLAKAAGLATMISTMRPDIDNMDEYVRNTTARAFAVVASALGIPSLLPFLKAVCKSKKSWQARHTGIKIVQQIAILMGCAILPHLRSLVEIIEHGLVDEQQKVRTISALAIAALAEAATPYGIESFDSVLKPLWKGIRQHRGKGLAAFLKAIGYLIPLMDAEYANYYTREVMLILIREFQSPDEEMKKIVLKVVKQCCGTDGVEANYIKTEILPPFFKHFWQHRMALDRRNYRQLVDTTVELANKVGAAEIISRIVDDLKDEAEQYRKMVMETIEKIMGNLGAADIDHKLEEQLIDGILYAFQEQTTEDSVMLNGFGTVVNALGKRVKPYLPQICGTVLWRLNNKSAKVRQQAADLISRTAVVMKTCQEEKLMGHLGVVLYEYLGEEYPEVLGSILGALKAIVNVIGMHKMTPPIKDLLPRLTPILKNRHEKVQENCIDLVGRIADRGAEYVSAREWMRICFELLELLKAHKKAIRRATVNTFGYIAKAIGPHDVLATLLNNLKVQERQNRVCTTVAIAIVAETCSPFTVLPALMNEYRVPELNVQNGVLKSLSFLFEYIGEMGKDYIYAVTPLLEDALMDRDLVHRQTASAVVQHMSLGVYGFGCEDSLNHLLNYVWPNVFETSPHVIQAVMGALEGLRVAIGPCRMLQYCLQGLFHPARKVRDVYWKIYNSIYIGSQDALIAHYPRIYNDDKNTYIRYELDYIL [SF3B1]”: the “solubility in G1/S (log2)” value in series [1] is -0.486. Further, the “solubility change mitosis (log2)” value in series [2] was 0.299. Moreover, the values for the thermal stability score in series [3] (setting [5]) and in series [3] (cell cycle stage: mitosis) were -1.78 and -0.315, respectively. Also, the values for the melting temperature in series [4] (cell cycle stage: G1/S) and in series [4] (cell cycle stage: mitosis) were 50.9 °C and 50.4 °C, respectively.
